In patent publication US20140314790A1 (ALBERT EINSTEIN COLLEGE OF MEDICINE OF YESHIVA UNIVERSITY, published 2014):

What was measured:
[1] = biological target: T1, amyloid precursor protein (APP), transfected into HeLa or HEK293 cells (UniProt P05067 18-770); test: α-Flag IP from HeLa/APP cells incubated with Flagged peptide, Western blot for APP
T1 construct: whole, on cells; Scheinfeld et al, 2002)'; also called mature APP; HeLa-APP

[2] = biological target: T2, β-CTF (C-terminal fragment of APP made by β-secretase cleavage) (UniProt P05067 672-770); test: α-Flag IP from HeLa/APP cells incubated with N3-2A-F, Western blot for APP-CTFs
T2 construct: domain: β-CTF; also called APP-CTF
T2 sequence (P05067 672-770 limits assumed): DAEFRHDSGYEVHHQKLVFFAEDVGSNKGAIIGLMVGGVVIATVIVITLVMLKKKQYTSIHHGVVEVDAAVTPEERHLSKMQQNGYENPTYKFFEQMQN

T1 sequence (P05067 18-770): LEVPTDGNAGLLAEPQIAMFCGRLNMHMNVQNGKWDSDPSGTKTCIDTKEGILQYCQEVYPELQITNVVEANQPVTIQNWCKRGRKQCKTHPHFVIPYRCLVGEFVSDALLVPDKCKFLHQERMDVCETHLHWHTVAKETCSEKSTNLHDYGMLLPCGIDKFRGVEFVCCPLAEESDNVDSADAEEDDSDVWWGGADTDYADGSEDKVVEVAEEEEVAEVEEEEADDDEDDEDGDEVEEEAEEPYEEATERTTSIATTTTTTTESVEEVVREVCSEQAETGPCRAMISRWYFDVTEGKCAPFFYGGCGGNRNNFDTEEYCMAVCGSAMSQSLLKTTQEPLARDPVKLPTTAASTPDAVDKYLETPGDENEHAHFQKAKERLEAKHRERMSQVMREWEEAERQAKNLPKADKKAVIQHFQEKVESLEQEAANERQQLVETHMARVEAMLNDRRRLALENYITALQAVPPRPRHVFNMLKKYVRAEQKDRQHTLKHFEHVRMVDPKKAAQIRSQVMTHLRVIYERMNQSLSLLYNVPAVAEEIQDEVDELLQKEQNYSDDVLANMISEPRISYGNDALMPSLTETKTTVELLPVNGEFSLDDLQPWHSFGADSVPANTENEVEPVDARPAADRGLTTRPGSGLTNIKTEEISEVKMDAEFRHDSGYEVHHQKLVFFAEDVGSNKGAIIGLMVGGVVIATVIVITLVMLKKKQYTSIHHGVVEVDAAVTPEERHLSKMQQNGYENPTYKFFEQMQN

Row | binding result [1] | binding result [2] | Binder
1 | no binding (tested: 40 µM) | – | DDVAYCGLKY (peptide, not shown: small tags and cut ends) [N3-4A-F (single amino acid N3 mutant N3-4A with Flag epitope)]
2 | – | no binding (tested: 40 µM) | DAVYYCGLKY (peptide, not shown: small tags and cut ends, also called BRI2-derived peptide) [N3-2A fused to a C-terminal Flag epitope (N3-2A-F)]
